Paper PMC12802937 (Nucleic Acids Research, 2026)

Assays:
Test in all cases: ITC; Lge1-CT (50–60 μM) injected into Bre1-LR (15 μM); 25°C, 20 mM TRIS (pH 7.5), 200 mM sodium chloride
Conditions in all cases: both partners purified
[1] = biological target: T1, Bre1-LR A489N (budding yeast, UniProt Q07457 227-700, A489N)
T1 construct: source: E. coli BL21 Rosetta (DE3), purified (Ni-NTA, heparin, gel filtration)
T1 sequence (looked up): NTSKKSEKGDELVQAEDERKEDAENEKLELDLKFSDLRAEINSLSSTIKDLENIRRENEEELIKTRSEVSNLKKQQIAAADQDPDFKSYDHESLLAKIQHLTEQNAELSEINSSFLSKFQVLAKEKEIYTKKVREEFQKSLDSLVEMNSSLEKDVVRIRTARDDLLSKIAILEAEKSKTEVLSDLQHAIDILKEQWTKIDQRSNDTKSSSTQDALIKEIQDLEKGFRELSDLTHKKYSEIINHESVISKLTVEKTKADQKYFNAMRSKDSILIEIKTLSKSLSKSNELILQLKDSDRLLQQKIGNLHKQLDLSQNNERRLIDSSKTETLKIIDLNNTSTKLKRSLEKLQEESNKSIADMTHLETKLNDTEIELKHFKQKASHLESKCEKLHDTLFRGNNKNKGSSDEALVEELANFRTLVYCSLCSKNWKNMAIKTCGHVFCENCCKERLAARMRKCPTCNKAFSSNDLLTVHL

[2] = biological target: T2, Bre1-LR V382N (budding yeast, UniProt Q07457 227-700, V382N)
T2 construct: source: E. coli BL21 Rosetta (DE3), purified (Ni-NTA, heparin, gel filtration)
T2 sequence (looked up): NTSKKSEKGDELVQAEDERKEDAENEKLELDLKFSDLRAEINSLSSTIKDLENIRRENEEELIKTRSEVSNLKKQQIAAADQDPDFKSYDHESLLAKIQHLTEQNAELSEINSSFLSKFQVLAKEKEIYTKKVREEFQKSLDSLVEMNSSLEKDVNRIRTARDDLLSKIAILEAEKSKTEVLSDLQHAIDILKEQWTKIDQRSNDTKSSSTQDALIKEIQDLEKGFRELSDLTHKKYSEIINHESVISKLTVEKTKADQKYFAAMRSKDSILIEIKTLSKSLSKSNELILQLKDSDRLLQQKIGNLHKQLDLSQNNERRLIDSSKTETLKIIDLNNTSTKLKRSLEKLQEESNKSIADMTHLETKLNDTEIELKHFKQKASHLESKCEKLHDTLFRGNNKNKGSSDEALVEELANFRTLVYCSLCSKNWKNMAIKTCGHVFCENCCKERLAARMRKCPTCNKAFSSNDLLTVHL

[3] = biological target: T3, Bre1-LR K352E (budding yeast, UniProt Q07457 227-700, K352E)
T3 construct: source: E. coli BL21 Rosetta (DE3), purified (Ni-NTA, heparin, gel filtration)
T3 sequence (looked up): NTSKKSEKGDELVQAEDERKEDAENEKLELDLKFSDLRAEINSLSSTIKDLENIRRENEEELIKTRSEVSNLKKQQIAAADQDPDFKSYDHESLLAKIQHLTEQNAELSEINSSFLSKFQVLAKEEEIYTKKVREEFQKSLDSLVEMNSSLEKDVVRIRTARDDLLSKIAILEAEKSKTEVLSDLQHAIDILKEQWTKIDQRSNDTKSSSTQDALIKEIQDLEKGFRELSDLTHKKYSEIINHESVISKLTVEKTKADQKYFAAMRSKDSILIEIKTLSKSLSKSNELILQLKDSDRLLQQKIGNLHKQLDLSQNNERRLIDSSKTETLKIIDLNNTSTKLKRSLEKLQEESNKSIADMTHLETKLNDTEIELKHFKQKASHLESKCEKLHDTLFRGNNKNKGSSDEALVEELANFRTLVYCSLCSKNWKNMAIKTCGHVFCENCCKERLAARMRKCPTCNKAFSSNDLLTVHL

[4] = biological target: T4, Bre1-LR K379E (budding yeast, UniProt Q07457 227-700, K379E)
T4 construct: source: E. coli BL21 Rosetta (DE3), purified (Ni-NTA, heparin, gel filtration)
T4 sequence (looked up): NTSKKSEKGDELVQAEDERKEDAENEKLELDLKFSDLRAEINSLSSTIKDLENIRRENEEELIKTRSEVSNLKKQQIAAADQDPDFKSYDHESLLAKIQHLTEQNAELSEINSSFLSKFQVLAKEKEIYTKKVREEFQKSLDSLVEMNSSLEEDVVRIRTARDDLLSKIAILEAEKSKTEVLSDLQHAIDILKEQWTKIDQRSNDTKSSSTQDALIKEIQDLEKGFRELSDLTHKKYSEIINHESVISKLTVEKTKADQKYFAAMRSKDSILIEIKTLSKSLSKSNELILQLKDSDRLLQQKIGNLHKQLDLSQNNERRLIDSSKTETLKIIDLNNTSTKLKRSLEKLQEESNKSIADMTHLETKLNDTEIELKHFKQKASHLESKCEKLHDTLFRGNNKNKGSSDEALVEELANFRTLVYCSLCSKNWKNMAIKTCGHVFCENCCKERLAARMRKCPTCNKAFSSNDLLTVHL

- Kd [1]: 154 ± 55 nM
- dH [1]: -52.1 ± 3.6 kcal/mol
- stoichiometry N [1]: 0.375 ± 0.012
- Kd [2]: 61.2 ± 14.4 nM
- dH [2]: -53.1 ± 1.7 kcal/mol
- stoichiometry N [2]: 0.378 ± 0.005
- Kd [3]: 176 ± 45 nM
- dH [3]: -22.9 ± 1.3 kcal/mol
- stoichiometry N [3]: 0.432 ± 0.011
- Kd [4]: 58.1 ± 19 nM
- dH [4]: -37.7 ± 1.6 kcal/mol
- stoichiometry N [4]: 0.428 ± 0.008
B1: Lge1-CT (Lge1 residues 261–332), intein-chitin binding domain (CBD) tag construct (domain or fragment, budding yeast, UniProt Q02796 261-332, looked up)
chain: KNVKKTNNTESECEKAREVFKESDSIDSALEELNLKINSNELELRLLNNQCDKHALNIQLTQEKLDSLLLMQ
notes: Lge1, budding yeast, residues 261-332; residues 268–331 resolved in the electron density; the intein-CBD tag is named on the protein in the pull-down; also called intein-CBD-fused Lge1-CT; intein-CBD-tagged Lge1-CT; source: E. coli BL21 Rosetta (DE3): cleared cell extract on chitin resin (pull-down); purified (chitin, heparin, gel filtration) for ITC and SPR; co-purified with Bre1-LR for the …
